Test results published in article PMC11626941, “FBLN7 mediates vascular smooth muscle cell phenotype switching and vascular remodeling in hypertension” (Theranostics, 2024).
Where “and” joins values, the source holds several entries; their conditions need not be identical. Equal entries are not always repeated.

Target: the molecule itself
Experiment: immunoblot with non-reducing loading buffer; HEK293T transfected with varying concentrations of SDC4 plasmids; SDS-PAGE, positions of SDC4 tetramer, dimer and monomer

B1: Flag-tagged full-length mouse SDC4 (receptor, UniProt O35988 24-198, looked up)
chain: ESIRETEVIDPQDLLEGRYFSGALPDDEDAGGSDDFELSGSGDLDDTEEPRPFPEVIEPLVPLDNHIPENAQPGIRVPSEPKELEENEVIPKRAPSDVGDDMSNKVSMSSTAQGSNIFERTEVLAALIVGGVVGILFAVFLILLLVYRMKKKDEGSYDLGKKPIYKKAPTNEFYA
notes: Plasmids provided by GenePharma; Seen as monomer, dimer and tetramer bands on non-reducing blots; also called Flag-SDC4; Flag (SDC4); source: HEK293T, transfected (pcDNA 3.1), in lysate; not shown: Flag, C-terminal, kept
- stoichiometry N: 2 and 4
